Literature values as cited in PMC8985225.

Biological target: CaMKII kinase domain (Caenorhabditis elegans) (UniProt O62305)

For “CaMKII kinase domain (from UniProt O62305)”, the Kd is given as over 100 µM.
